Values joined by “and” are separate entries in the source; they are usually repeats but may differ in a detail not shown here. Identical values can stand only once.
Experiments:
SC-K^d -15 (mouse) = SC-K^d -15 (mouse) (UniProt P01887)
[1] = target: K^d molecules isolated from the spleen of BALB/c mice (mouse, UniProt P01887); test: direct peptide binding assay, peptide coated on plastic, 125I-labeled K^d

Molecule	cpm bound (SC-K^d -15 (mouse))	binding result [1]
influenza NPR- 147-158 (peptide)	214 cpm and 171 cpm	–
TYQRTRALVTG [influenza NPR- 147-158]	–	no binding (tested: 10 µg/ml; pH 9.6)

Reference: patent US6011146A, “Altered major histocompatibility complex (MHC) determinant and methods of using the determinant” (Institut Pasteur, priority 1995, dated 2000)
